The source of these data is US20210371518A1 (University of Texas, published 2021).

Assay [1] has as its target T1, human LILRB4 extracellular domain (ECD) recombinant protein (human, UniProt Q8NHJ6 22-259).
T1 construct: extracellular domain; also called LILRB4 ECD; LILRB4-ECD
Kind of assay: ELISA, coated LILRB4 ECD. As to the method: FIG. 22 illustrates the determination of exemplary LILRB4 monoclonal antibody (mAbs) binding to human LILRB4 ECD using a concentration titration (0-10 μg/ml) by ELISA. X axis indicates the antibody concentrations and Y-axis is binding signals in OD (450 nm). LILRB4 ECD recombinant protein was coated on high absorption 96-well plates. Serial diluted (3-fold) LILRB4 mAb was added to the coated/blocked and detected using goat anti-rabbit IgG F(ab)₂-conjugated HRP as secondary antibody. The titration curves were fitted using 4-parameter fitting curve using the GraphPad software for EC50 estimation.

The target of assay [2] is T1, human LILRB4 extracellular domain (ECD) …. Kind of assay: Octet BLI, antibody on protein A sensor, recombinant human LILRB4 in solution. The protocol:
FIG. 26 illustrates the kinetic binding measurements (sensor-grams) for exemplary LILRB4 antibodies determined using Octet. Antibody at 30 μg/mL was loaded to the proteins A sensor for 4 min. Following a short baseline in kinetics buffer, the loaded sensors were exposed to a series of recombinant human LILRB4 concentrations (0.1-200 nM) and background subtraction was used to correct for sensor drifting. All experiments were performed with shaking at 1,000 rpm. Background wavelength shifts were measured from reference sensors that were loaded only with antibody. ForteBio's data analysis software was used to fit the data to a 1:1 binding model to extract an association rate and dissociation rate. The KD was calculated by the ratio koff/kon using ForteBio's data analysis software 7.0.

The target is the same in assay [3]. Kind of assay: ELISA, LILRB4 recombinant protein coated, anti-human IgG F(ab)2-HRP.
Assay [4] deals with T2, human LILRB4 D1 recombinant protein (human, UniProt Q8NHJ6 24-119, limits assumed).
T2 construct: domain: D1 domain; also called LILRB4 D1 domain (D1); Ig domain-1
Kind of assay: ELISA, LILRB4 D1 recombinant protein coated, anti-rabbit IgG F(ab)2-HRP. As to the method: FIGS. 23A-23B. FIG. 23A is a schematic of the LILRB4 extracellular domain (ECD). […] FIG. 23B illustrates the determination of exemplary LILRB4 mAbs binding to Ig domain-1 (D1 domain) of human LILRB4. X axis indicates the antibody concentrations and Y-axis is binding signals in OD (450 nm). LILRB4 D1 recombinant protein was coated on high absorption 96-well plates. Serial diluted (3-fold) LILRB4 mAb was added to the coated/blocked plates and detected using goat anti-rabbit IgG F(ab)₂-conjugated HRP as secondary antibody.

T2 sequence (Q8NHJ6 24-119 limits assumed): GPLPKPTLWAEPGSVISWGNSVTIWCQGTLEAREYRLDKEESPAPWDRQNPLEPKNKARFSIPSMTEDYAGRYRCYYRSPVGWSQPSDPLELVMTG

B1: B4-72-2 (antibody, V domains shown)
VH: EQSVEESGGRLVTPGTPLTLTCTASGFSLSSYYMSWVRQAPGRGLEYIGVINTGGSAVYATWTKGRFTISRTSTTVDLKMTGLTTEDTATYFCARGWSRGDLWGQGTLVTISS
VL: ELDMTQTPSPVSAAVGGTVTIKCQSSQNVYDDDTLSWYQQKPGQPPKLLIYDASKLASGVPDRFSGSGSGTQFTLTISGVQCDDAATYYCLGVFHDGINNAFGGGTEVEIK
notes: Rabbit monoclonal antibody
B1: the EC50 in assay [1] came out at 0.29 nM. Moreover, in assay [2], the Kd came to 3.73 nM.

B2: h193 (antibody, V domains shown)
VH: EVQLVESGGGLVQPGGSLRLSCAASGFSLSSSYWISWVRQAPGKGLEWIGSIDSGSVGITYYATWVKGRFTISRDNSKNTLYLQMNSLRAEDTAVYYCARHGDNWALDLWGQGTLVTVSS
VL: DLVMTQSPSTLSASVGDRVTITCQASQSINSWLAWYQQKPGKPPKLLIYKASTLASGVSSRFSGSGSGTEFTLTISSLQPDDVATYYCQHGYIRGDLDNVFGGGTKVEIKR
As to B2, the “EC50 (read off the curve)” value in assay [3] was ~0.03 µg/mL.

B3: B4-87 (antibody, V domains shown)
VH: QSVKESGGDLVKPGASLTLTCTASGFSFISTYWICWVRQAPGKGLELIACIYTGGSGSTYYASWAKGRFTISKTSSTTVTLQLNSLTAADTATYFCARALYVDYVDYDYIDLWGPGTLVTVSS
VL: ELDLTQTPASVEAAVGGTVTIKCQASENIGSRLAWYQQKPGQPPKLLIYAASNLASGVSSRFKGSRSGTQFTLTISDLECADAAIYYCQCSYYGSTYVFGFGGGTEVEIK
notes: Rabbit monoclonal antibody
As for B3, in assay [4], the “EC50 (read off the curve)” value is ~0.2 µg/mL. In assay [1], the EC50 amounted to 2.54 nM. Further, in assay [2], the Kd came to 0.238 nM.
